Measured values: publication PMC10684670

Legend:
rhNKp30-his protein = rhNKp30-his protein (UniProt O14931); assay: flow cytometry on cells; conditions: 293T cells stably expressing B7-H6, stained with his-tagged NKp30; parent: est. 1.0; read off a plot
CHX chase, WB, 293T = conditions: glycan lost; control: DMSO
CHX chase, WB, U87 = conditions: glycan lost; control: DMSO
[1] = surface B7-H6 flow cytometry, HEK293T; conditions: glycan lost; control: wild type
[2] = CHX chase, WB, stable 293T; conditions: glycan lost; control: wild type
[3] = WB of TCA-precipitated supernatant, HCT-116; conditions: glycan lost; control: wild type
[4] = surface B7-H6 flow cytometry, HCT-116; conditions: glycan lost; control: wild type
[5] = WB of TCA-precipitated supernatant, HEK293T; conditions: glycan lost; control: wild type

| Molecule | localisation_or_trafficking [1] | degradation_or_half_life, half_life [2] | localisation_or_trafficking [4] | also measured |
| --- | --- | --- | --- | --- |
| B7-H6, wild type, stably expressed on B7-H6 knockout 293T cells (from UniProt Q68D85) N411Q | – | – | – | ratio to parent (rhNKp30-his protein): 0.94 |
| B7-H6: tunicamycin (protein) parent chain: MTWRAAASTCAALLILLWALTTEGDLKVEMMAGGTQITPLNDNVTIFCNIFYSQPLNITSMGITWFWKSLTFDKEVKVFEFFGDHQEAFRPGAIVSPWRLKSGDASLRLPGIQLEEAGEYRCEVVVTPLKAQGTVQLEVVASPASRLLLDQVGMKENEDKYMCESSGFYPEAINITWEKQTQKFPHPIEISEDVITGPTIKNMDGTFNVTSCLKLNSSQEDPGTVYQCVVRHASLHTPLRSNFTLTAARHSLSETEKTDNFSIHWWPISFIGVGLVLLIVLIPWKKICNKSSSAYTPLKCILKHWNSFDTQTLKKEHLIFFCTRAWPSYQLQDGEAWPPEGSVNINTIQQLDVFCRQEGKWSEVPYVQAFFALRDNPDLCQCCRIDPALLTVTSGKSIDDNSTKSEKQTPREHSDAVPDAPILPVSPIWEPPPATTSTTPVLSSQPPTLLLPLQ | – | – | – | degradation_or_half_life, half_life (CHX chase, WB, 293T): decreases, 17.36 vs 47.42; degradation_or_half_life, half_life (CHX chase, WB, U87): decreases, 12.83 vs 27.14 |
| B7-H6: N208Q (protein) parent chain: MTWRAAASTCAALLILLWALTTEGDLKVEMMAGGTQITPLNDNVTIFCNIFYSQPLNITSMGITWFWKSLTFDKEVKVFEFFGDHQEAFRPGAIVSPWRLKSGDASLRLPGIQLEEAGEYRCEVVVTPLKAQGTVQLEVVASPASRLLLDQVGMKENEDKYMCESSGFYPEAINITWEKQTQKFPHPIEISEDVITGPTIKNMDGTFNVTSCLKLNSSQEDPGTVYQCVVRHASLHTPLRSNFTLTAARHSLSETEKTDNFSIHWWPISFIGVGLVLLIVLIPWKKICNKSSSAYTPLKCILKHWNSFDTQTLKKEHLIFFCTRAWPSYQLQDGEAWPPEGSVNINTIQQLDVFCRQEGKWSEVPYVQAFFALRDNPDLCQCCRIDPALLTVTSGKSIDDNSTKSEKQTPREHSDAVPDAPILPVSPIWEPPPATTSTTPVLSSQPPTLLLPLQ | decreases | decreases, 15 vs about 52 | decreases | other: shedding of soluble B7-H6 [3]: increases; other: shedding of soluble B7-H6 [5]: increases |
| B7-H6: N43Q (protein) parent chain: MTWRAAASTCAALLILLWALTTEGDLKVEMMAGGTQITPLNDNVTIFCNIFYSQPLNITSMGITWFWKSLTFDKEVKVFEFFGDHQEAFRPGAIVSPWRLKSGDASLRLPGIQLEEAGEYRCEVVVTPLKAQGTVQLEVVASPASRLLLDQVGMKENEDKYMCESSGFYPEAINITWEKQTQKFPHPIEISEDVITGPTIKNMDGTFNVTSCLKLNSSQEDPGTVYQCVVRHASLHTPLRSNFTLTAARHSLSETEKTDNFSIHWWPISFIGVGLVLLIVLIPWKKICNKSSSAYTPLKCILKHWNSFDTQTLKKEHLIFFCTRAWPSYQLQDGEAWPPEGSVNINTIQQLDVFCRQEGKWSEVPYVQAFFALRDNPDLCQCCRIDPALLTVTSGKSIDDNSTKSEKQTPREHSDAVPDAPILPVSPIWEPPPATTSTTPVLSSQPPTLLLPLQ | decreases | decreases, 5 vs about 52 | decreases | – |
